Measurements taken from patent publication US8029979B2, “Method for determining the substrate specificity of an enzyme” (JPT Peptide Technologies GmbH, priority 2001, dated 2011).
BA1 = not defined here

What was measured:
[1] = target: T1, protein kinase A (Bos taurus, UniProt P00517); test: Time-dependent incubation of various modified surfaces with protein kinase A (FIG. 3, Example 31); assay type: biochemical; details: protein kinase A 2 U/mL, incubated for the given time at 25° C.
T1 construct: purchased Sigma P26452 as printed
Description: FIG. 3. The peptide Leu-Arg-Arg-Ala-Ser-Leu-Gly-NH2, modified at the N-terminus with the dipeptide cysteinyl-β-alanine, was coupled to maleinimido-functionalised surfaces by a Michael addition (maleinimido-functionalised glass surface, Sigma, Silane-Prep™, S4651; as well as maleinimidobutyryl-β-alanine-functionalised, modified polypropylene membranes). The modified glass surfaces were first pre-incubated for 10 minutes using 20 mL of 100 μM ATP solution in 50 mM of sodium phosphate buffer pH 7.5. […] (Example 31). The phosphorylation of the corresponding peptides was detected using a FUJIFILM PhosphorImager. The signal intensity of the respective spot is given below the figures. […] FIG. 4. […] After incubation for 30 min at 25° C. the phosphorylation of the corresponding peptides was detected using a FUJIFILM PhosphorImager. […] After incubation for 30 min at 25° C. the phosphorylation of the corresponding peptides was detected using a FUJIFILM PhosphorImager. […]
After drying the glass surface the quantity of radioactive phosphate incorporated in the glass-surface-bound peptides was determined using a PhosphorImager system (FLA-3000, FUJIFILM) (see FIG. 3).

[2] = target: T1, protein kinase A; test: Incubation of various modified surfaces (glass, cellulose, polypropylene) with protein kinase A (FIG. 2, Example 30); assay type: biochemical; details: protein kinase A 2 U/mL, 30 minutes at 25° C.
Description: FIG. 2. The peptide Leu-Arg-Arg-Ala-Ser-Leu-Gly-NH2 and the control peptide […], each modified at the N-terminus with the dipeptide cysteinyl-β-alanine, were coupled to a maleinimido-functionalised surface by a Michael addition (Example 1; maleinimidobutyryl-β-alanine-functionalised cellulose as well as maleinimidobutyryl-β-alanine-functionalised, modified polypropylene membranes). The surfaces thus modified were first pre-incubated for 10 minutes using 10 mL of 100 μM ATP solution in 50 mM of sodium phosphate buffer pH 7.5. […] (Example 30). The phosphorylation of the corresponding peptides was detected using a FUJIFILM PhosphorImager. The signal intensity of the respective spot is given below the figures. […] In the case of the modified glass surfaces, however, the signal for the substrate amino acid sequence is a factor of 4-5 larger than the signal for the corresponding control amino acid sequence. […]
After drying the glass surface the quantity of radioactive phosphate incorporated in the glass-surface-bound peptides was determined using a PhosphorImager system (FLA-3000, FUJIFILM) (see FIG. 2).

## Cys-BA1-Leu-Arg-Arg-Ala-Ser-Leu-Gly-NH2 ({Cys-BA1}-LRRASLG-NH2; reading uncertain; also: printed as Cys-BA1-Leu-Arg-Arg-Ala-Ser-Leu-Gly-NH2) [compound 85]
[1]; modified glass surfaces
  kinase-mediated incorporation of radioactivity into the substrate amino acid sequence: clear time dependence
[1]; modified polypropylene surfaces
  kinase-mediated phosphorylation signal on polypropylene: only non-specific binding of ATP or kinase to the peptides is measured
[2]; modified cellulose or polypropylene surfaces
  kinase-mediated phosphorylation signal on porous surfaces: only non-specific binding of ATP or kinase to the peptides is measured
[2]; modified glass surfaces
  signal for the substrate amino acid sequence larger than the signal for the corresponding control amino acid sequence: 4-5 factor
